What was measured:
[1] = target: the molecule itself; assay: crystal structure; hGALT 20 mg/ml pre-incubated with 5 mM UDP-Glc; vapour diffusion at 20 °C, 0.2 M ammonium sulphate, 30% PEG 8000; two chains in the asymmetric unit; dimer interactions analysed with PISA
[2] = target: the molecule itself; assay: small angle X-ray scattering (SAXS); HPLC-SAXS at 10 mg/ml in 10 mM HEPES pH 7.5, 150 mM NaCl, 0.5 mM TCEP; ab initio envelopes by GASBOR

| Protein | stoichiometry N [1] | stoichiometry N [2] |
| --- | --- | --- |
| uridylylated human galactose 1-phosphate uridylyltransferase (UMP-hGALT) (enzyme, UniProt P07902 1-379, looked up, UMP covalently bound to His186 (uridylylated), human galactose 1-phosphate uridylyltransferase (GALT, EC 2.7.7.12), full length, from a cDNA clone with the p.Asn314Asp polymorphism; Crystallised after pre-incubation with 5 mM UDP-Glc; for SAXS made by overnight incubation with 2 mM UDP-glucose; also called UMP-GALT; uridylylated hGALT; source: incubated with UDP-glucose; not shown: His6, N-terminal, cleaved) MSRSGTDPQQRQQASEADAAAATFRANDHQHIRYNPLQDEWVLVSAHRMKRPWQGQVEPQLLKTVPRHDPLNPLCPGAIRANGEVNPQYDSTFLFDNDFPALQPDAPSPGPSDHPLFQAKSARGVCKVMCFHPWSDVTLPLMSVPEIRAVVDAWASVTEELGAQYPWVQIFENKGAMMGCSNPHPHCQVWASSFLPDIAQREERSQQAYKSQHGEPLLMEYSRQELLRKERLVLTSEHWLVLVPFWATWPYQTLLLPRRHVRRLPELTPAERDDLASIMKKLLTKYDNLFETSFPYSMGWHGAPTGSEAGANWDHWQLHAHYYPPLLRSATVRKFMVGYEMLAQAQRDLTPEQAAERLRALPEVHYHLGQKDRETATIA | 2 |  |
| apo human galactose 1-phosphate uridylyltransferase (apo-hGALT) (enzyme, UniProt P07902 1-379, looked up, human galactose 1-phosphate uridylyltransferase (GALT, EC 2.7.7.12), full length, from a cDNA clone with the p.Asn314Asp polymorphism; De-uridylylated form made by overnight incubation with 2 mM glucose 1-phosphate; source: incubated with glucose 1-phosphate; not shown: His6, N-terminal, cleaved) MSRSGTDPQQRQQASEADAAAATFRANDHQHIRYNPLQDEWVLVSAHRMKRPWQGQVEPQLLKTVPRHDPLNPLCPGAIRANGEVNPQYDSTFLFDNDFPALQPDAPSPGPSDHPLFQAKSARGVCKVMCFHPWSDVTLPLMSVPEIRAVVDAWASVTEELGAQYPWVQIFENKGAMMGCSNPHPHCQVWASSFLPDIAQREERSQQAYKSQHGEPLLMEYSRQELLRKERLVLTSEHWLVLVPFWATWPYQTLLLPRRHVRRLPELTPAERDDLASIMKKLLTKYDNLFETSFPYSMGWHGAPTGSEAGANWDHWQLHAHYYPPLLRSATVRKFMVGYEMLAQAQRDLTPEQAAERLRALPEVHYHLGQKDRETATIA |  | 2 |
| human galactose 1-phosphate uridylyltransferase variant p.Gln188Arg, hGALT(p.Q188R) (enzyme, UniProt P07902 1-379, looked up, As purified only the apo enzyme was seen by mass spectrometry; not shown: His6, N-terminal, cleaved) MSRSGTDPQQRQQASEADAAAATFRANDHQHIRYNPLQDEWVLVSAHRMKRPWQGQVEPQLLKTVPRHDPLNPLCPGAIRANGEVNPQYDSTFLFDNDFPALQPDAPSPGPSDHPLFQAKSARGVCKVMCFHPWSDVTLPLMSVPEIRAVVDAWASVTEELGAQYPWVQIFENKGAMMGCSNPHPHCRVWASSFLPDIAQREERSQQAYKSQHGEPLLMEYSRQELLRKERLVLTSEHWLVLVPFWATWPYQTLLLPRRHVRRLPELTPAERDDLASIMKKLLTKYDNLFETSFPYSMGWHGAPTGSEAGANWDHWQLHAHYYPPLLRSATVRKFMVGYEMLAQAQRDLTPEQAAERLRALPEVHYHLGQKDRETATIA |  | 2 |

Source: PMC5081055, “Molecular basis of classic galactosemia from the structure of human galactose 1-phosphate uridylyltransferase” (Human Molecular Genetics, 2016)
